Results reported in article PMC6941951, “Conditional control of RNA-guided nucleic acid cleavage and gene editing”.

Molecular target: T1, dCas13a (LbuCas13a R1079A/K1080A) (Leptotrichia buccalis, UniProt C7NBY4 1-1159, R1079A;K1080A)
T1 sequence: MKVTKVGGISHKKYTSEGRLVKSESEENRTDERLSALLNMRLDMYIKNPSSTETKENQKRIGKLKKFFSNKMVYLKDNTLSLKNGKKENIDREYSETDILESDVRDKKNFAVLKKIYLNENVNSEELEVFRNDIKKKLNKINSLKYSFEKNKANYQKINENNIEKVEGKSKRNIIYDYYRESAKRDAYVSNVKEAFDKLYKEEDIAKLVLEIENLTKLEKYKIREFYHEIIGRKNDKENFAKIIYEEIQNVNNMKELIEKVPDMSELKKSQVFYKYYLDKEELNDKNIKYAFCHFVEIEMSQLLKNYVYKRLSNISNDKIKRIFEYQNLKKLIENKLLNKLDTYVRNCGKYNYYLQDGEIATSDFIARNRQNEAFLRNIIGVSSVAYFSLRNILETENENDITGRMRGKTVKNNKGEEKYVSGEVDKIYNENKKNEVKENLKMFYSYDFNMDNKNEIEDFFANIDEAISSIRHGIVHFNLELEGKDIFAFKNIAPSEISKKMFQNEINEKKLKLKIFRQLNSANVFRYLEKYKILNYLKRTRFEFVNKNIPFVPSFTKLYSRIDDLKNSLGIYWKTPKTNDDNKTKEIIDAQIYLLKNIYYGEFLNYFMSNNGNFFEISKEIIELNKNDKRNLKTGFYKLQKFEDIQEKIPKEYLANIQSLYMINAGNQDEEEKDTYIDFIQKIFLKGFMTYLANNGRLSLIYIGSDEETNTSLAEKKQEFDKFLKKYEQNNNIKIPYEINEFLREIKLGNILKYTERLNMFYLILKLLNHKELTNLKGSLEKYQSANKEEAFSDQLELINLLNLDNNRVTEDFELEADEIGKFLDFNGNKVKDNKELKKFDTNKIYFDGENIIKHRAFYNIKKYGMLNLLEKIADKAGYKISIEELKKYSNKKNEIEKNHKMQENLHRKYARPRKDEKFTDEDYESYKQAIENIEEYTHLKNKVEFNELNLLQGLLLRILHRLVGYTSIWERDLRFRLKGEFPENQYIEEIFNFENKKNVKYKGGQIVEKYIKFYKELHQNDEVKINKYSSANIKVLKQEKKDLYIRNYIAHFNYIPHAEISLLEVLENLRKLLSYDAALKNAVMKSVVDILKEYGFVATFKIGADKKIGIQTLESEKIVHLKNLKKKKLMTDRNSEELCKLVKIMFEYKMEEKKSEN
Assay: EMSA; no target RNA; dCas13a EMSA: 20 mM HEPES pH 6.8 (25 C), 50 mM KCl, 10 ug/mL BSA, 100 ug/mL yeast tRNA, 0.01% Igepal CA-630, 5% glycerol; 10 min at 37 C; 6% native PAGE at 4 C
Conditions: protein: recombinant; tags: His6-MBP removed with TEV protease; label: 5'-Cy3; single strand, repeat hairpin

B1: crRNA13a-Cy3 (unmasked) (structured_RNA)
RNA: GAUUUAGACUACCCCAAAAACGAAGGGGACUAAAACUAGAUUGCUGUUCUACCAAGUAAUCCAU
  binding result: binds
